Test results: PMC6620605 (Current biology : CB, 2019)

Target: T1, 6x His-SEPT9 (human septin 9, isoform 1 / isoform a) (human, UniProt Q9UHD8-1 1-586)
T1 sequence (looked up): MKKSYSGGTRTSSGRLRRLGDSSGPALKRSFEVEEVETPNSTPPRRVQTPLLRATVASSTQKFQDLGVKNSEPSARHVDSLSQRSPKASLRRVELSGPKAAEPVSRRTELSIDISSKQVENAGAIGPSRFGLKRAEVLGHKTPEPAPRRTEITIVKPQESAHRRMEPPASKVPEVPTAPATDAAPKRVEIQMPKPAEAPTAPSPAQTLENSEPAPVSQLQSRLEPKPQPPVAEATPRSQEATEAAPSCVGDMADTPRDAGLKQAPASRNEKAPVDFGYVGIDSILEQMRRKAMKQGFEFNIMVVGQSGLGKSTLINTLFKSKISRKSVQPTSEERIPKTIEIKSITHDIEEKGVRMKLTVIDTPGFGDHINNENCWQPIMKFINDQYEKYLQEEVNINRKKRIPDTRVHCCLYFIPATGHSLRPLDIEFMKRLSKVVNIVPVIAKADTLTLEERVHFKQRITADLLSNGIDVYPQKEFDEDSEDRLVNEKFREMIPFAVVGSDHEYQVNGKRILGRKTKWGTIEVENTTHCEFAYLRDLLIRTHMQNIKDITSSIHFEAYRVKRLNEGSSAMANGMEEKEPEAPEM
Test: pull-down

binding result: binds
B1: GST-TSG101 UEV (TSG101 aa 1-145) (domain or fragment, human, UniProt Q99816-1 1-145, looked up)
chain: MAVSESQLKKMVSKYKYRDLTVRETVNVITLYKDLKPVLDSYVFNDGSSRELMNLTGTIPVPYRGNTYNIPICLWLLDTYPYNPPICFVKPTSSMTIKTGKHVDANGKIYLPYLHEWKHPQSDLLGLIQVMIVVFGDEPPVFSRP
